{"source": "patent US20230025039", "key": {"[1]": {"system": "Cas13b-t1-REPAIR R and H to A in both HEPN domains (numbering not given) (Atlantic deep subsurface metagenome)", "assay": "cell_activity", "conditions": "non-targeting control"}, "[2]": {"system": "Cas13b-t3-REPAIR R and H to A in both HEPN domains (numbering not given) (Planctomycetes bacterium isolate B28_G16)", "assay": "cell_activity", "conditions": "non-targeting control"}}, "data": [{"substance": "non-targeting editing gRNA (b-t1) ; Cypridina luciferase W85X mRNA", "values": [{"measurement": "activity (normalized RLU)", "setting": "[1]", "value": 0.00795}]}, {"substance": "non-targeting editing gRNA (b-t3) ; Cypridina luciferase W85X mRNA", "values": [{"measurement": "activity (normalized RLU)", "setting": "[2]", "value": 0.00368}]}]}
